Data on 8 molecules can be found in publication PMC10238739, “Interaction with single-stranded DNA-binding protein modulates Escherichia coli RadD DNA repair activities” (The Journal of Biological Chemistry, 2023).

Substitutions are numbered along the chain they refer to. Names and notes keep the numbering of the source.

Data set [1] deals with FAM labeled SSB C-terminal peptide … (E. coli). The data set can be described thus: fluorescence polarisation; fluorescence anisotropy; 10 nM 5-FAM SSB C-terminal peptide, RadD or variant titrated up to 30 μM; 25 mM Tris-acetate pH 7.5, 200 mM potassium glutamate, 10 mM magnesium acetate, 1 mM DTT, 0.1 μg/ml BSA; 15 min at room temperature; apparent KD, one-site fit. For orientation: In fluorescence polarisation assays a small probe gives low polarisation when free and higher when bound to something large.

Data set [2] addresses Escherichia coli single-stranded DNA-binding protein (SSB), full-length (E. coli, UniProt P0AGE0 1-178). The data set can be described thus: cell-based or functional assay.
Substrate in data set [3]: Nc1ncnc2c1ncn2[C@@H]1O[C@H](COP(=O)(O)OP(=O)(O)OP(=O)(O)O)[C@@H](O)[C@H]1O
The data set can be described thus: coupled spectrophotometric ATPase assay (NADH oxidation). It is filed as biochemical, Escherichia coli. Conditions: no SSB, no DNA, 200 nM RadD, 10 mM Mg acetate, 200 mM K glutamate, pH 7.5, 37 °C. The source says: coupled spectrophotometric ATPase assay (NADH oxidation) on RadD

Chain of Escherichia coli single-stranded DNA-binding protein (SSB), full-length (P0AGE0 whole entry): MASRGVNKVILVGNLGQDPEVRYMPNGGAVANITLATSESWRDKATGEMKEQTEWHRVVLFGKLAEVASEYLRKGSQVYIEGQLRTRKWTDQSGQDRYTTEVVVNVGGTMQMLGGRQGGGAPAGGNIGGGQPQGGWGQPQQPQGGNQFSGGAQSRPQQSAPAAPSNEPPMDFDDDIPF

B1: Escherichia coli RadD, wild type (enzyme, E. coli)
chain: MIFTLRPYQQEAVDATLNHFRRHKTPAVIVLPTGAGKSLVIAELARLARGRVLVLAHVKELVAQNHAKYQALGLEADIFAAGLKRKESHGKVVFGSVQSVARNLDAFQGEFSLLIVDECHRIGDDEESQYQQILTHLTKVNPHLRLLGLTATPFRLGKGWIYQFHYHGMVRGDEKALFRDCIYELPLRYMIKHGYLTPPERLDMPVVQYDFSRLQAQSNGLFSEADLNRELKKQQRITPHIISQIMEFAATRKGVMIFAATVEHAKEIVGLLPAEDAALITGDTPGAERDVLIENFKAQRFRYLVNVAVLTTGFDAPHVDLIAILRPTESVSLYQQIVGRGLRLAPGKTDCLILDYAGNPHDLYAPEVGTPKGKSDNVPVQVFCPACGFANTFWGKTTADGTLIEHFGRRCQGWFEDDDGHREQCDFRFRFKNCPQCNAENDIAARRCRECDTVLVDPDDMLKAALRLKDALVLRCSGMSLQHGHDEKGEWLKITYYDEDGADVSERFRLQTPAQRTAFEQLFIRPHTRTPGIPLRWITAADILAQQALLRHPDFVVARMKGQYWQVREKVFDYEGRFRLAHELRG
Regarding B1, in data set [1], the Kd came to 5.4 µM. Moreover, in data set [2], the “ATPase rate of 200 nM RadD on titration of SSB from 0 to 40 μM” value is around 3 fold.

B2: RadD (Escherichia coli K-12; R21E) (protein)
chain: B1 chain with R21E
notes: full-length, untagged; expressed from plasmid pEAW724 in E. coli STL2669/pT7pol26; conventional chromatography
Turning to B2, in data set [3], the Km – broadly, the substrate concentration at which the rate is half of its maximum – was determined as 654 ± 52 µM and the Vmax (in general, the rate approached at saturating substrate) worked out at 42.3 µM/min.

B3: RadD (Escherichia coli K-12; R145E) (protein)
chain: B1 chain with R145E
notes: as for B2
Regarding B3, in data set [3], the Michaelis-Menten constant (Km) came to 698 ± 75 µM and the maximum rate (Vmax) was determined as 28.4 µM/min.

B4: RadD R145E (enzyme)
chain: B1 chain with R145E
As for B4, the Kd in data set [1] is above 30 µM.

B5: RadD R21E (enzyme)
chain: B1 chain with R21E
For B5, the Kd in data set [1] was above 30 µM.

B6: RadD (Escherichia coli K-12) (protein)
chain: B1 chain
notes: as for B2
Turning to B6, in data set [3], the Km came out at 640 ± 76 µM and the Vmax came to 29.4 µM/min.

B7: RadD (Escherichia coli K-12; R49E) (protein)
chain: B1 chain with R49E
notes: as for B2
B7: in data set [3], the Km worked out at 464 ± 44 µM and the Vmax was determined as 51 µM/min.

B8: RadD R49E (enzyme)
chain: B1 chain with R49E
B8: the Kd in data set [1] is above 30 µM.
